The target of test [1] is HALOGluA2(R) (GluA2(R) subunit with HALO domain inserted between signal peptide and N-terminal domain) (rat) (UniProt P19491). Put plainly: FRET or BRET.
Test [2] concerns the target HALOGluA3 (GluA3 subunit with HALO domain inserted between signal peptide and N-terminal domain) (rat) (UniProt P19492). Kind of test: FRET or BRET.

Chain of HALOGluA3 (GluA3 subunit with HALO domain inserted between signal peptide and N-terminal domain) (rat) (P19492 23-888): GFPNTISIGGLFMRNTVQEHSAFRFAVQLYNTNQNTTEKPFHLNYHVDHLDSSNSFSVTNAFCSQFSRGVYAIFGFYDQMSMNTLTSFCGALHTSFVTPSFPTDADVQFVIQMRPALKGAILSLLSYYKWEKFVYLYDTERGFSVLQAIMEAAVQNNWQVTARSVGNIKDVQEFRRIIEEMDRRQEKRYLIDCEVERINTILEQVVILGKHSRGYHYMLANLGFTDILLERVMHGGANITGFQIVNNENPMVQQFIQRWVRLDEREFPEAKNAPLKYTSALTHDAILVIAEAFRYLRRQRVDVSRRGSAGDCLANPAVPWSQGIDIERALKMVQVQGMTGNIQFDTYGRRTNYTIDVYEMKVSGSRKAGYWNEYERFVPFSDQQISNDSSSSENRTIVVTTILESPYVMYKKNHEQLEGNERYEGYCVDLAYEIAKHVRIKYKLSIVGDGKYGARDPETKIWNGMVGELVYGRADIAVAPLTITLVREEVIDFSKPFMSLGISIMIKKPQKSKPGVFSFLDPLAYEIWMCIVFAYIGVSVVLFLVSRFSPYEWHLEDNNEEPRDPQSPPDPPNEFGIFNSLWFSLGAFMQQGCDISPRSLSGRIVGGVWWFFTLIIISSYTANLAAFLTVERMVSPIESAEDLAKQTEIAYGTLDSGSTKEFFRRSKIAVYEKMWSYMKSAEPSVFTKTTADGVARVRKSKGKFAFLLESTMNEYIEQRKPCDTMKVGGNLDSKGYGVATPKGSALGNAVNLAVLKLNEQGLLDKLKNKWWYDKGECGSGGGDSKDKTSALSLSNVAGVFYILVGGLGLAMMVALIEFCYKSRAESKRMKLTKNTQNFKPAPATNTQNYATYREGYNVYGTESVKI
Chain of CFPGluA2(R) (GluA2(R) subunit with CFP inserted between signal peptide and N-terminal domain) (P19491 22-883): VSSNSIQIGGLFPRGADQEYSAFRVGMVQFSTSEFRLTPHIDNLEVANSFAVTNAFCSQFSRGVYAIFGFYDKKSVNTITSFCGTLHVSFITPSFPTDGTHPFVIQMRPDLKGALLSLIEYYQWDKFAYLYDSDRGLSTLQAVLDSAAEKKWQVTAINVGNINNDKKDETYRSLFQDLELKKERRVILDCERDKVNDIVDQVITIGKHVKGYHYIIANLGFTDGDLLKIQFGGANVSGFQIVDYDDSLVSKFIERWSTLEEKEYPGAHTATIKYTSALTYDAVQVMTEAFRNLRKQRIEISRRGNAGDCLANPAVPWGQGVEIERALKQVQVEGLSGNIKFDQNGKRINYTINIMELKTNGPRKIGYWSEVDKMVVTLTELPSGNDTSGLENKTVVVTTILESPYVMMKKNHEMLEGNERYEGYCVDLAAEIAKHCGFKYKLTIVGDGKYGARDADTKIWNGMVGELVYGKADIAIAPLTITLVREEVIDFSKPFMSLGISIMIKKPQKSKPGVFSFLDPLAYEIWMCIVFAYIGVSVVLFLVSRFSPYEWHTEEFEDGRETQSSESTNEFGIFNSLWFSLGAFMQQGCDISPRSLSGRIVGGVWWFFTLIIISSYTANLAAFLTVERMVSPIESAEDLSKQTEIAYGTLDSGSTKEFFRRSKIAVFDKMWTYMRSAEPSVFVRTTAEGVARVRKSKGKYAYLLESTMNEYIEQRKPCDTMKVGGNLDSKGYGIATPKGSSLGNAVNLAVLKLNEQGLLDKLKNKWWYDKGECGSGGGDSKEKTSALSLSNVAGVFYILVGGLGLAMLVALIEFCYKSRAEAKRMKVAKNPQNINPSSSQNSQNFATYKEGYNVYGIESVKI
Chain of HALOGluA2(R) (GluA2(R) subunit with HALO domain inserted between signal peptide and N-terminal domain) (rat) (P19491 22-883): as above
Chain of CFPGluA1 (GluA1 subunit with CFP inserted between signal peptide and N-terminal domain) (P19490 19-907): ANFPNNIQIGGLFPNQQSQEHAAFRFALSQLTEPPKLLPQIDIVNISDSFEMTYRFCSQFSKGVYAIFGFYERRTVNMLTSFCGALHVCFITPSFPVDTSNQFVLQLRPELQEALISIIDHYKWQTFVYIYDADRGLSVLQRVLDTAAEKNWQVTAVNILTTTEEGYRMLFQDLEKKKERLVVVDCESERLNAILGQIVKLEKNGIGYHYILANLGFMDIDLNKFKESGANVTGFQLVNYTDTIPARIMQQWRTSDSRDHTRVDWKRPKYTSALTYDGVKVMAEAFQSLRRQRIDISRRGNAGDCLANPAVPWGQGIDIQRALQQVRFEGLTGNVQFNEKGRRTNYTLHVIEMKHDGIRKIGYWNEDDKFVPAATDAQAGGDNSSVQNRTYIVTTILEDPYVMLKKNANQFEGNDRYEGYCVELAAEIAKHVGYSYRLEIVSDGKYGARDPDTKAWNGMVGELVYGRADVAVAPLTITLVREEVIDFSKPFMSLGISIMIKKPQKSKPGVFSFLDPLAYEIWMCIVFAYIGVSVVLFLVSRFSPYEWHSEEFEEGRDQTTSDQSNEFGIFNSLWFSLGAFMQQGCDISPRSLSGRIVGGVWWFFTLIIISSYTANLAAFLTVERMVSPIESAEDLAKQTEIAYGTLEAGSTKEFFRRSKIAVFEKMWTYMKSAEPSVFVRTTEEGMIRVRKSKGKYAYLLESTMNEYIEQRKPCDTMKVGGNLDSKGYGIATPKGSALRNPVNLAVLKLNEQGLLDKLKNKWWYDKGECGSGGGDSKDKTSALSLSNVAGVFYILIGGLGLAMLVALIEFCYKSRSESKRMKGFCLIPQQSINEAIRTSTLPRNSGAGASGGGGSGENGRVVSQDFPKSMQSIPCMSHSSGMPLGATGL

Regarding “CFPGluA1 (GluA1 subunit with CFP inserted between signal peptide and N-terminal domain) (from UniProt P19490 19-907) (receptor)”, in test [1], the CFP (donor) lifetime mean in the presence of the acceptor AF488 is 2.03 and the E FRET came out at 38.5%.
On to “CFPGluA2(R) (GluA2(R) subunit with CFP inserted between signal peptide and N-terminal domain) (from UniProt P19491 22-883) (receptor)”, for which, in test [2], the CFP (donor) lifetime mean in the presence of the acceptor AF488 was determined as 2.51 and the E FRET was 27%.

These data come from article doi:10.64898/2025.12.17.694835.
